± gives the uncertainty stated by the source.
assay: abundance fitness (aPCA) (normalised: wild type 0, dead -1); higher = more abundant; growth selection in yeast, the domain comes from the species named; conditions: Homo sapiens

Row | Substance | abundance fitness
1 | Transcriptional activator Myb R176P, P10242 | -0.87 ± 0.15
2 | Transcriptional activator Myb R176Q, P10242 | -0.513 ± 0.16
3 | Transcriptional activator Myb R176S, P10242 | -0.457 ± 0.072
4 | Transcriptional activator Myb R176T, P10242 | -0.223 ± 0.096
5 | Transcriptional activator Myb R176V, P10242 | -0.22 ± 0.066
6 | Transcriptional activator Myb R176W, P10242 | -0.436 ± 0.064
7 | Transcriptional activator Myb R176Y, P10242 | -0.651 ± 0.14
8 | Transcriptional activator Myb R190A, P10242 | -0.023 ± 0.07
9 | Transcriptional activator Myb R190C, P10242 | -0.117 ± 0.18
10 | Transcriptional activator Myb R190D, P10242 | -0.073 ± 0.13
11 | Transcriptional activator Myb R190E, P10242 | -0.161 ± 0.093
12 | Transcriptional activator Myb R190F, P10242 | 0.009 ± 0.13
13 | Transcriptional activator Myb R190H, P10242 | -0.189 ± 0.17
14 | Transcriptional activator Myb R190I, P10242 | -0.265 ± 0.14
15 | Transcriptional activator Myb R190K, P10242 | 0.137 ± 0.12
16 | Transcriptional activator Myb R190L, P10242 | -0.131 ± 0.061
17 | Transcriptional activator Myb R190M, P10242 | 0.06 ± 0.14
18 | Transcriptional activator Myb R190N, P10242 | -0.196 ± 0.19
19 | Transcriptional activator Myb R190P, P10242 | -0.335 ± 0.083
20 | Transcriptional activator Myb R190Q, P10242 | 0.026 ± 0.12
21 | Transcriptional activator Myb R190S, P10242 | -0.074 ± 0.065
22 | Transcriptional activator Myb R190T, P10242 | -0.131 ± 0.08

Row | Substance | abundance fitness
23 | Transcriptional activator Myb R190V, P10242 | -0.01 ± 0.089
24 | Transcriptional activator Myb R190W, P10242 | -0.075 ± 0.11
25 | Transcriptional activator Myb R190Y, P10242 | -0.461 ± 0.18
26 | Transcriptional activator Myb R191A, P10242 | 0.036 ± 0.075
27 | Transcriptional activator Myb R191C, P10242 | 0.172 ± 0.15
28 | Transcriptional activator Myb R191D, P10242 | 0.117 ± 0.12
29 | Transcriptional activator Myb R191E, P10242 | 0.004 ± 0.086
30 | Transcriptional activator Myb R191F, P10242 | -0.164 ± 0.21
31 | Transcriptional activator Myb R191G, P10242 | -0.038 ± 0.068
32 | Transcriptional activator Myb R191I, P10242 | -0.136 ± 0.16
33 | Transcriptional activator Myb R191K, P10242 | -0.192 ± 0.12
34 | Transcriptional activator Myb R191L, P10242 | -0.058 ± 0.077
35 | Transcriptional activator Myb R191M, P10242 | -0.091 ± 0.13
36 | Transcriptional activator Myb R191N, P10242 | -0.07 ± 0.13
37 | Transcriptional activator Myb R191P, P10242 | 0.047 ± 0.11
38 | Transcriptional activator Myb R191S, P10242 | -0.052 ± 0.076
39 | Transcriptional activator Myb R191T, P10242 | 0.022 ± 0.14
40 | Transcriptional activator Myb R191V, P10242 | 0.017 ± 0.094
41 | Transcriptional activator Myb R191W, P10242 | -0.017 ± 0.088
42 | Transcriptional activator Myb R191Y, P10242 | -0.423 ± 0.16
43 | Transcriptional activator Myb S146A, P10242 | -0.233 ± 0.15
44 | Transcriptional activator Myb S146F, P10242 | -0.021 ± 0.19

Row | Substance | abundance fitness
45 | Transcriptional activator Myb S146G, P10242 | -0.159 ± 0.2
46 | Transcriptional activator Myb S146K, P10242 | -0.344 ± 0.34
47 | Transcriptional activator Myb S146L, P10242 | -0.299 ± 0.43
48 | Transcriptional activator Myb S146P, P10242 | -0.108 ± 0.26
49 | Transcriptional activator Myb S146V, P10242 | -0.017 ± 0.29
50 | Transcriptional activator Myb S187A, P10242 | -0.075 ± 0.093
51 | Transcriptional activator Myb S187C, P10242 | -0.061 ± 0.1
52 | Transcriptional activator Myb S187D, P10242 | 0.077 ± 0.12
53 | Transcriptional activator Myb S187E, P10242 | -0.001 ± 0.067
54 | Transcriptional activator Myb S187F, P10242 | -0.26 ± 0.085
55 | Transcriptional activator Myb S187G, P10242 | -0.023 ± 0.049
56 | Transcriptional activator Myb S187H, P10242 | -0.011 ± 0.17
57 | Transcriptional activator Myb S187I, P10242 | -0.033 ± 0.14
58 | Transcriptional activator Myb S187K, P10242 | -0.058 ± 0.1
59 | Transcriptional activator Myb S187L, P10242 | -0.019 ± 0.066
60 | Transcriptional activator Myb S187M, P10242 | -0.188 ± 0.13
61 | Transcriptional activator Myb S187N, P10242 | -0.161 ± 0.14
62 | Transcriptional activator Myb S187P, P10242 | -0.589 ± 0.11
63 | Transcriptional activator Myb S187Q, P10242 | 0.125 ± 0.11
64 | Transcriptional activator Myb S187R, P10242 | -0.054 ± 0.049
65 | Transcriptional activator Myb S187T, P10242 | 0.124 ± 0.1
66 | Transcriptional activator Myb S187V, P10242 | -0.081 ± 0.061

Row | Substance | abundance fitness
67 | Transcriptional activator Myb S187W, P10242 | -0.108 ± 0.07
68 | Transcriptional activator Myb S202C, P10242 | -0.108 ± 0.1
69 | Transcriptional activator Myb S202D, P10242 | -0.069 ± 0.087
70 | Transcriptional activator Myb S202E, P10242 | 0.042 ± 0.073
71 | Transcriptional activator Myb S202F, P10242 | -0.045 ± 0.093
72 | Transcriptional activator Myb S202G, P10242 | 0.027 ± 0.047
73 | Transcriptional activator Myb S202I, P10242 | -0.021 ± 0.19
74 | Transcriptional activator Myb S202L, P10242 | -0.181 ± 0.073
75 | Transcriptional activator Myb S202M, P10242 | -0.186 ± 0.12
76 | Transcriptional activator Myb S202N, P10242 | -0.237 ± 0.18
77 | Transcriptional activator Myb S202P, P10242 | -0.061 ± 0.14
78 | Transcriptional activator Myb S202Q, P10242 | -0.102 ± 0.16
79 | Transcriptional activator Myb S202R, P10242 | -0.144 ± 0.063
80 | Transcriptional activator Myb S202T, P10242 | 0.012 ± 0.11
81 | Transcriptional activator Myb S202V, P10242 | -0.001 ± 0.064
82 | Transcriptional activator Myb S202W, P10242 | -0.211 ± 0.083
83 | Transcriptional activator Myb S202Y, P10242 | -0.218 ± 0.17
84 | Transcriptional activator Myb S203A, P10242 | -0.01 ± 0.085
85 | Transcriptional activator Myb S203C, P10242 | -0.112 ± 0.094
86 | Transcriptional activator Myb S203D, P10242 | -0.079 ± 0.15
87 | Transcriptional activator Myb S203E, P10242 | 0.079 ± 0.16
88 | Transcriptional activator Myb S203F, P10242 | -0.29 ± 0.1

Row | Substance | abundance fitness
89 | Transcriptional activator Myb S203G, P10242 | 0.072 ± 0.066
90 | Transcriptional activator Myb S203H, P10242 | -0.264 ± 0.12
91 | Transcriptional activator Myb S203K, P10242 | 0.14 ± 0.19
92 | Transcriptional activator Myb S203L, P10242 | -0.042 ± 0.094
93 | Transcriptional activator Myb S203M, P10242 | -0.054 ± 0.15
94 | Transcriptional activator Myb S203N, P10242 | -0.108 ± 0.1
95 | Transcriptional activator Myb S203P, P10242 | -0.139 ± 0.12
96 | Transcriptional activator Myb S203Q, P10242 | 0.061 ± 0.13
97 | Transcriptional activator Myb S203R, P10242 | -0.145 ± 0.074
98 | Transcriptional activator Myb S203T, P10242 | 0.006 ± 0.1
99 | Transcriptional activator Myb S203V, P10242 | 0.055 ± 0.082
100 | Transcriptional activator Myb S203W, P10242 | -0.015 ± 0.097
101 | Transcriptional activator Myb S203Y, P10242 | -0.113 ± 0.15
102 | Transcriptional activator Myb T145A, P10242 | -0.066 ± 0.061
103 | Transcriptional activator Myb T145C, P10242 | -0.218 ± 0.16
104 | Transcriptional activator Myb T145D, P10242 | 0.144 ± 0.15
105 | Transcriptional activator Myb T145E, P10242 | 0.055 ± 0.12
106 | Transcriptional activator Myb T145F, P10242 | -0.123 ± 0.25
107 | Transcriptional activator Myb T145G, P10242 | -0.091 ± 0.061
108 | Transcriptional activator Myb T145I, P10242 | 0.228 ± 0.14

— the Human Domainome abundance scans (Beltran et al. 2025)
